Measurements: patent US20210196823A1, “Methods of Treating Metabolic Disease” (Pfizer Inc., priority 2018, published 2021)

What was measured:
Huh7 cells = experiment: Gene expression microarray of Huh7 cells treated with ERFE; type: cell-based; settings: Huh7, ERFE 10 μg/ml, 24 h
Protocol: (b) Gene expression microarray: Microarray analysis of Huh7 cells treated with mouse or human erythroferrone was carried out to test the activity of erythroferrone on the BMP/SMAD signalling pathway. Generally cell treatments were carried out according to the following protocol: Huh7 and HepG2 were cultured in Dulbecco's Modified Eagle's Medium—High Glucose (Sigma), supplemented with 10% Fetal Bovine Serum (Sigma), 1% Penicillin-Streptomycin (Sigma) and 1% L-Glutamine (Sigma), unless otherwise indicated. Cells were plated 24 h before treatments in 24-well (gene expression analysis) or 12-well (protein analysis) cell culture plates. At the time of treatment, cells were washed with PBS and fresh media was added.
For the purposes of gene expression microarray analysis RNA was isolated from the Huh7 cells using RNeasy Plus kit (Qiagen), this was followed by RNA quantification and quality assessment using a 2100 Bioanalyzer (Agilent). RNA was converted into biotin labelled cRNA for hybridization and gene expression analysed using the Human HT12v4.0 Expression Beadchip (Illumina) and the Illuminas's iScan Scanner. Raw data was normalised using the lumi package (Bioconductor) and compared using LIMMA (Bioconductor). Statistical significance was set at p<0.05.

C2C12 Bre-Luc cells = experiment: BMP/SMAD signalling output in C2C12 Bre-Luc cells; type: cell-based; settings: 24 h
Protocol: As HAMP can be stimulated by a variety of ligands, we further tested the effect of ERFE in cells treated with various BMPs by measuring BMP/SMAD signalling output in C2C12 Bre-Luc cells. C2C12 Bre-Luc cells were treated with 2 nM of BMP in combination with a gradient of mouse ERFE concentrations (7.5 pM to 0.5 μM) for 24 h, and luminescence measured in each well. […] Analogous data confirmed suppression of HAMP and ID1 in cells treated with ERFE and BMP 2/6, BMP5, BMP6 and BMP7, FIG. 3F.
The inhibitory effect of EFE on selected BMPs was tested in-vitro in three different cell types, C2C12, Huh7 and HepG2. Huh7 (FIG. 3G, 3H) and HepG2 (FIGS. 3J, 3K) cells were treated with 2 nM of BMPs, alone or in combination with 10 μg/ml of mouse ERFE, in serum-free media, and analysed 6 h after treatment. Gene expression of HAMP and ID1 was measured by qRT-PCR. Results expressed as fold change relative to non-treated cells from 3 independent experiments. Statistical significance was analysed for each pair of BMP treatments. (*p<0.05, **p<0.01, ***p<0.001, ****p<0.0001, Student's t test). Additionally we tested the effect of ERFE in cells treated with various BMPs by measuring BMP/SMAD signalling output in C2C12 Bre-Luc cells (FIG. 3E). C2C12 Bre-Luc cells were treated with 2 nM of BMP in combination with a gradient of mouse ERFE concentrations (7.5 pM to 0.5 μM) for 24 h, and luminescence measured in each well.

B1: mouse ERFE: recombinant mouse erythroferrone (SEQ ID NO: 2); monoFC-muErfe is a monomeric FC murine ERFE fusion (protein, listed as Mus musculus)
chain: MASRRPVGARTLLACASLLAAMGLGVPESAEPVGTHARPQPPGAELPAPPANSPPEPIAHAHSVDPRDAWMLFVKQSDKGINSKRRSKARRLKLGLPGPPGPPGPQGPPGPFIPSEVLLKEFQLLLKGAVRQRESHLEHCTRDLPASGSPSRVPAAQELDSQDPGALLALLAATLAQGPRAPRVEAAFHCRLRRDVQVDRRALHELGIYYLPEVEGAFHRGPGLNLTSGQYTAPVAGFYALAATLHVALTEQPRKGPTRPRDRLRLLICIQSLCQHNASLETVMGLENSSELFISVNGVLYLQAGHYSVFLDNASGSSLTVRSGSHFSAILLGL
With B1 as the molecule, how does the “target genes of the JAK/STAT3 pathway” value (Huh7 cells) read?
The value was “No changes”.

What about the “number of suppressed genes” value (Huh7 cells; 5 are BMP/SMAD targets ID1, ID2, ID3, SMAD6, HAMP) of the same molecule?
The value was 12.

And the “BMP2 activity (luminescence)” value (C2C12 Bre-Luc cells; 2 nM BMP2, mouse ERFE 7.5 pM to 0.5 μM)?
The value was “no effect”.

And the “BMP4 activity (luminescence)” value (C2C12 Bre-Luc cells; 2 nM BMP4, mouse ERFE 7.5 pM to 0.5 μM)?
Its value is “no effect”.

What about the “activation of BMP signalling by BMP5 (luminescence)” value (C2C12 Bre-Luc cells; 2 nM BMP5, mouse ERFE 7.5 pM to 0.5 μM) of the same molecule?
The value was “dose-dependent decrease”.

And the “activation of BMP signalling by BMP6 (luminescence)” value (C2C12 Bre-Luc cells; 2 nM BMP6, mouse ERFE 7.5 pM to 0.5 μM)?
Its value is “dose-dependent decrease”.

What about the “activation of BMP signalling by BMP7 (luminescence)” value (C2C12 Bre-Luc cells; 2 nM BMP7, mouse ERFE 7.5 pM to 0.5 μM) of the same molecule?
Its value is “dose-dependent decrease”.

What about the “BMP9 activity (luminescence)” value (C2C12 Bre-Luc cells; 2 nM BMP9, mouse ERFE 7.5 pM to 0.5 μM) of the same molecule?
The value was “no effect”.
